According to paper PMC3984902 (Oncogene, 2013):

Target: HSP90β (purified recombinant) (UniProt P08238 1-724)
Experiment: ITC

HSP90β (purified recombinant), sequence (P08238 whole entry): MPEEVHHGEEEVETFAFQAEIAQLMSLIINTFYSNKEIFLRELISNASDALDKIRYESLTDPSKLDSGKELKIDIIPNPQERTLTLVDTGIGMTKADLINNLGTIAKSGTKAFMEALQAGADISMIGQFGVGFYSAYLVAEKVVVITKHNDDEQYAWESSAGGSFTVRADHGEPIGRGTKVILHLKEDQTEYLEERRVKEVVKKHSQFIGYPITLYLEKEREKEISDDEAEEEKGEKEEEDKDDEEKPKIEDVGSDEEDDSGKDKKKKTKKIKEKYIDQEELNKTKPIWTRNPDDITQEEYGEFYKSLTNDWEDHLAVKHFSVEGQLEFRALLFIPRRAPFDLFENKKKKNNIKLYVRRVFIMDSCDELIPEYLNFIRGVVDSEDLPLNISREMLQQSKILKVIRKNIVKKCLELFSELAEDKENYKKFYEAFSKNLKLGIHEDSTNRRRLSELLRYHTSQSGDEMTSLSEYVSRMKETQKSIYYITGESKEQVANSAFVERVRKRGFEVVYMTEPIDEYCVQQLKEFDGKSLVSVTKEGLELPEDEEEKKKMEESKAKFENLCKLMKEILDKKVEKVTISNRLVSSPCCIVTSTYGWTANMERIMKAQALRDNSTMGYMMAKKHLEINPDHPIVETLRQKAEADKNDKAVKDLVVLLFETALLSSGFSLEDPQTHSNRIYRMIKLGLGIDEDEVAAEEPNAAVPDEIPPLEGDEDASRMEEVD

B1: FLAG-tagged wildtype CDC37 (purified recombinant) (natural protein)
chain: MVDYSVWDHIEVSDDEDETHPNIDTASLFRWRHQARVERMEQFQKEKEELDRGCRECKRKVAECQRKLKELEVAEGGKAELERLQAEAQQLRKEERSWEQKLEEMRKKEKSMPWNVDTLSKDGFSKSMVNTKPEKTEEDSEEVREQKHKTFVEKYEKQIKHFGMLRRWDDSQKYLSDNVHLVCEETANYLVIWCIDLEVEEKCALMEQVAHQTIVMQFILELAKSLKVDPRACFRQFFTKIKTADRQYMEGFNDELEAFKERVRGRAKLRIEKAMKEYEEEERKKRLGPGGLDPVEVYESLPEELQKCFDVKDVQMLQDAISKMDPTDAKYHMQRCIDSGLWVPNSKASEAKEGEEAGPGDPLLEAVPKTGDEKDVSV
In the case of B1, the Kd is reported as 2.26 µM.

B2: FLAG-tagged CDC37 M164A (purified recombinant) (natural protein)
chain: MVDYSVWDHIEVSDDEDETHPNIDTASLFRWRHQARVERMEQFQKEKEELDRGCRECKRKVAECQRKLKELEVAEGGKAELERLQAEAQQLRKEERSWEQKLEEMRKKEKSMPWNVDTLSKDGFSKSMVNTKPEKTEEDSEEVREQKHKTFVEKYEKQIKHFGALRRWDDSQKYLSDNVHLVCEETANYLVIWCIDLEVEEKCALMEQVAHQTIVMQFILELAKSLKVDPRACFRQFFTKIKTADRQYMEGFNDELEAFKERVRGRAKLRIEKAMKEYEEEERKKRLGPGGLDPVEVYESLPEELQKCFDVKDVQMLQDAISKMDPTDAKYHMQRCIDSGLWVPNSKASEAKEGEEAGPGDPLLEAVPKTGDEKDVSV
B2 gave a Kd of 7.19 µM.
